Measured values reported in patent publication US20240228660A1 (IP2IPO INNOVATIONS, published 2024).
Where a chain is given by its changes, count along the chain named.

B1: 1-A2 (antibody, human IgG1, V domains shown)
VH: QSVEESGGRLVPPGTPLTLTCTVSGIDLTSNAMNWVRQAPGKGLEWIGGIYGHDTSYYAAWAKGRFTISRTSTTVDLKMTRPTTDDTATYFCARGFIYFDIWGTGTLVTISS
VL: AIEMTQTPPSLSASVGETVRIRCLASEDIYSGISWYQQKPGKPPTLLIYGASNLESGVPPRFSGSGSGTDYTLTIGGVQAEDAATYYCLGGHSHSTTDLTFGAGTKVEIK
notes: Rabbit-derived variable domains cloned into a human IgG1 expression vector and expressed as monoclonal antibody; also called clone 1-A2; antibody 1-A2
B2: 4-H3 (antibody, human IgG1, V domains shown)
VH: B1 VH with V3L
VL: B1 VL with I2Y, E3D, Y30A, H92Y, H94F, T96S, T97N, D98G
notes: Rabbit-derived variable domains expressed as human IgG1; also called clone 4-H3
B3: 1-D5 (antibody, human IgG1, V domains shown)
VH: QQQLVESGGRLVTPGTPLTLTCAVSGFSLNNYIMGWVRQAPGKGLEYIGIISTGGSTYYASWAKGRFTISRTSTTMDLKMTSLTTEDTATYFCARGGSSAGAGFNIWGPGTLVTVSS
VL: DIVMTQTPSSVSAAVGDTVTIQCQASQSINSGLAWYQQKPGQPPKRLIYKASTLASGVPSRFRGSGSGTDFTLTISDLECADAATYYCQSYHYISANGATFGGGTEVVVE
notes: Rabbit-derived variable domains expressed as human IgG1; also called clone 1-D5; antibody 1-D5
B4: 3-H9 (antibody, human IgG1, V domains shown)
VH: QSLEESGGRLVTPGTPLTLTCSVSGFSLSNYDMSWVRQAPGKGLEWIGSIHAIGITYYANWAEGRFTISKTSTTVDLKMTSLTTEDTATYFCARGLVDLNMWGPGTLVTVSS
VL: AIKMTQTPSSVSVAVGGTVTINCQSSQSVYSNNLLSWYQQKPGQPPKLLIYDASTLESGVPSRFKGSGSGTQFTLTISGVQCEDAATYYCQGSYYSSGWYNTFGGGTEVVVE
notes: Rabbit-derived variable domains expressed as human IgG1; also called clone 3-H9; antibody 3-H9
B5: 1-G5 (antibody, human IgG1, V domains shown)
VH: B4 VH with N30S, S34T, I53T, Y57F, E63K, I68T
VL: DPVMTQTASSVSAAVGGTVTINCQASQSVYNNNYLSWYQQKPGQPPKLLIYDASTLASGVPSRFSGNGSGTQFTLTISGVQCDDAATYYCQGSYYSGGWDTAFGGGTKVVVK
notes: Rabbit-derived variable domains expressed as human IgG1; also called clone 1-G5
B6: 3-H9_H2_L0 (antibody, human IgG1, kappa, V domains shown)
VH: QQLVESGGGVVQPGRSLRLSCAASGFSLSNYDMSWVRQAPGKGLEWIGSIHAIGITYYANWAEGRFTISRDKNTVYLQMNSLRAEDTATYFCARGLVDLNMWGQGTLVTVSS
VL: DIQMTQSPSSLSASVGDRVTITCQSSQSVYSNNLLSWYQQKPGKAPKLLIYDASTLESGVPSRFSGSGSGTDFTLTISSLQPEDFATYYCQGSYYSSGWYNTFGGGTKVEIKT
notes: humanised, human IgG1 kappa
B7: 3-H9_H1_L0 (antibody, human IgG1, kappa, V domains shown)
VH: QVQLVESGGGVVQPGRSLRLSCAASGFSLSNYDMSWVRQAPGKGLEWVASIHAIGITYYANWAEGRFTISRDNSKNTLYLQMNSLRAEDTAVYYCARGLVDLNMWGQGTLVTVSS
VL: B6 VL
notes: humanised, human IgG1 kappa
B8: 3-H9_H0_L0 (antibody, human IgG1, kappa, V domains shown)
VH: QVQLVESGGGVVQPGRSLRLSCAASGFTFSNYDMSWVRQAPGKGLEWVASIHAIGITYYANWAEGRFTISRDNSKNTLYLQMNSLRAEDTAVYYCARGLVDLNMWGQGTLVTVSS
VL: B6 VL
notes: humanised, human IgG1 kappa
B9: 1-G5_H2_L1 (antibody, human IgG1, kappa)
heavy: not shown
light: DPQMTQSPSSLSASVGDRVTITCQASQSVYNNNYLSWYQQKPGKAPKLLIYDASTLASGVPSRFSGSGSGTDFTLTISSLQPEDFATYYCQGSYYSGGWDTAFGGGTKVEIKTVAAPSVFIFPPSDEQLKSGTASVVCLLNNFYPREAKVQWKVDNALQSGNSQESVTEQDSKDSTYSLSSTLTLSKADYEKHKVYACEVTHQGLSSPVTKSFNRGEC
notes: humanised, human IgG1 kappa
B10: 1-G5_H1_L1 (antibody, human IgG1, kappa)
heavy: not shown
light: B9 light
notes: humanised, human IgG1 kappa
B11: 1-G5_H0_L0 (antibody, human IgG1, kappa)
heavy: not shown
light: B9 light with P2I
notes: humanised, human IgG1 kappa
B12: 1-G5_H0_L1 (antibody, human IgG1, kappa)
heavy: not shown
light: B9 light
notes: humanised, human IgG1 kappa
B13: 1-G5_H2_L0 (antibody, human IgG1, kappa)
heavy: not shown
light: B9 light with P2I
notes: humanised, human IgG1 kappa
B14: 1-D5_H2_L1 (antibody, human IgG1, kappa, V domains shown)
VH: QQQLVESGGGVVQPGRSLRLSCAASGFSLNNYIMGWVRQAPGKGLEYIGIISTGGSTYYASWAKGRFTISRDSNTMYLQMNSLRAEDTATYFCARGGSSAGAGFNIWGQGTLVTVSS
VL: DIQMTQSPSSLSASVGDRVTITCQASQSINSGLAWYQQKPGKAPKRLIYKASTLASGVPSRFSGSGSGTDFTLTISSLQPEDFATYYCQSYHYISANGATFGGGTKVEIKT
notes: humanised, human IgG1 kappa
B15: 1-D5_H1_L1 (antibody, human IgG1, kappa, V domains shown)
VH: QVQLVESGGGVVQPGRSLRLSCAASGFSLNNYIMGWVRQAPGKGLEWVAIISTGGSTYYASWAKGRFTISRDNSKNTLYLQMNSLRAEDTAVYYCARGGSSAGAGFNIWGQGTLVTVSS
VL: B14 VL
notes: humanised, human IgG1 kappa
B16: 1-D5_H0_L1 (antibody, human IgG1, kappa, V domains shown)
VH: B15 VH with S28T, L29F, N30S
VL: B14 VL
notes: humanised, human IgG1 kappa
B17: 1-D5_H0_L0 (antibody, human IgG1, kappa, V domains shown)
VH: B15 VH with S28T, L29F, N30S
VL: B14 VL with R46L
notes: humanised, human IgG1 kappa
B18: 1-D5_H2_L0 (antibody, human IgG1, kappa, V domains shown)
VH: B14 VH
VL: B14 VL with R46L
notes: humanised, human IgG1 kappa
B19: 1-D5_H1_L0 (antibody, human IgG1, kappa, V domains shown)
VH: B15 VH
VL: B14 VL with R46L
notes: humanised, human IgG1 kappa

Each binder was assayed against T1, human full-length VWF (human, UniProt P04275 764-2813) (assay: SPR, Biacore T200, antibody captured on Protein A, full-length VWF as analyte, single-cycle kinetics).
Method: (§1) Antibodies were captured on Protein A sensor chip. The system was purged using running buffer (10 mM HEPES pH 7.4, 300 mM NaCl, 3 mM EDTA, 0.05% P20) and a series S Protein A chip was docked in the Biacore T200. The surface was conditioned with 10 mM glycine-HCl pH 1.5 regeneration solution (3 injections). Each antibody was diluted to ˜0.8 μg/ml in running buffer to capture ˜350 RU on flow cells 2, 3 and 4 (flow cell 1 used as in-line reference cell). Single-cycle kinetic analysis of human full-length VWF binding to antibodies was performed using the following parameters:

Point of comparison: B2, Kd 15.3 pM. Against it:
- B1 — 1.9-fold lower, 8.02 pM

The binders below were run against T2, human native VWF (human, UniProt P04275 764-2813) (assay: SPR, Biacore 8K, antibody captured on Protein A, native VWF as analyte (4.4-50 nM), single-cycle kinetics, 1:1 fit; replicate 2).
T2 construct: Multimeric glycoprotein; also called native VWF protein; native VWF (305 kDa)
Method: (§2) The surface plasmon resonance (SPR) experiments were performed using a Biacore 8K (Cytiva) equipped with a research grade Protein A series S sensor chip. […] Flow cell 1 was left blank to serve as a reference surface. […] The complex was allowed to associate and dissociate for 120 seconds and 7200 seconds respectively. The surfaces were regenerated with 30 see injections of 10 mM glycine-HCl pH1.5.
(§3) Data were collected at a rate of 10 Hz. The data were fit to a simple 1:1 interaction model using the global data analysis option available within the Biacore Insight Evaluation software version 3.0.12.15655.

Point of comparison: B3, Kd 38.1 pM. Against it:
- B4 — 2.2-fold higher, 84 pM
- B5 — 2.1-fold higher, 79 pM
- B1 — 14-fold higher, 527 pM
- B2 — 4-fold higher, 154 pM

What follows are binders tested against T2, human native VWF (assay: SPR, Biacore 8K, antibody captured on Protein A, native VWF as analyte (4.4-50 nM), single-cycle kinetics, 1:1 fit; replicate 1).
Method: as §2, §3

Point of comparison: B4, Kd 48.7 pM. Against it:
- B3 — 1.9-fold lower, 25 pM
- B5 — within 1.5-fold, 54.9 pM
- B1 — 3.4-fold higher, 164 pM
- B2 — 2.5-fold higher, 123 pM

These binders were tested against T2, human native VWF (assay: ELISA, native VWF coated at 20 ng/well, semi-log dilution of the mAb from 10 µg/ml, anti-human IgG-HRP/TMB).
Method: (§4) Purified monoclonal antibodies originally derived from scFvs selected from rabbit immune library were tested for binding towards C1-C6-Fc, VWFAD4-C6, BSA (100 ng/well) and human native VWF (Imperial College, 20 ng/well). […] Protein targets were immobilized overnight on ELISA plates, blocked and incubated with a semi-log dilution series of purified recombinant monoclonal antibodies (starting concentration 10 μg/ml), averages of duplicate values are shown. Antibody binding towards human native VWF, VWFAD4-C6 and BSA were detected with antihuman IgG-HRP or anti-human IgG-HRP and TMB staining. ELISA reactivities towards C1-C6-Fc were performed in a separate ELISA experiment and were detected with anti-human IgGκ-HRP and TMB staining.

In the case of B3, the “EC50 (read off the curve)” value is reported as ~6 ng/mL.

These binders were tested against T1, human full-length VWF (assay: SPR Biacore T200, antibody captured on Protein A chip, full-length VWF as analyte, single-cycle kinetics).
Method: as §1

B6 and B7 cannot be ordered by Kd: < 1000 pM for the first, < 1000 pM for the second.

B8 and B9 cannot be ordered by Kd: < 1000 pM for the first, < 1000 pM for the second.

B10 and B11 cannot be ordered by Kd: < 1000 pM for the first, < 1000 pM for the second.

B12 and B13 cannot be ordered by Kd: < 1000 pM for the first, < 1000 pM for the second.

B14 and B15 cannot be ordered by Kd: < 1000 pM for the first, < 1000 pM for the second.

B16 and B17 cannot be ordered by Kd: < 1000 pM for the first, < 1000 pM for the second.

B18 and B19 cannot be ordered by Kd: < 1000 pM for the first, < 1000 pM for the second.

Target: T1, human full-length VWF
Test: SPR, Biacore T200, antibody captured on Protein A, full-length VWF as analyte, single-cycle kinetics
Remark: another data set of the same source
Method: as §1

Point of comparison: B12, Kd 12.9 pM. Against it:
- B6 — within 1.5-fold, 11.2 pM
- B7 — within 1.5-fold, 15.6 pM
- B8 — 12-fold lower, 1.05 pM
- B5 — 2-fold higher, 25.3 pM
- B9 — 74-fold lower, 0.174 pM
- B10 — within 1.5-fold, 14.8 pM
- B11 — 12-fold lower, 1.1 pM
- B13 — within 1.5-fold, 13 pM

Point of comparison: B8, koff 8.46e-08 s⁻¹. Against it:
- B6 — 10-fold higher, 8.74e-07 s⁻¹
- B7 — 3.4-fold higher, 2.84e-07 s⁻¹
- B9 — 3.8-fold lower, 2.25e-08 s⁻¹
- B10 — 7.1-fold higher, 6.03e-07 s⁻¹
- B11 — within 1.5-fold, 9.05e-08 s⁻¹
- B12 — 12-fold higher, 1.02e-06 s⁻¹
- B13 — 4.6-fold higher, 3.9e-07 s⁻¹

Point of comparison: B13, kon 29900 M⁻¹ s⁻¹. Against it:
- B6 — 2.6-fold higher, 78100 M⁻¹ s⁻¹
- B7 — 1.6-fold lower, 18200 M⁻¹ s⁻¹
- B8 — 2.7-fold higher, 80900 M⁻¹ s⁻¹
- B9 — 4.3-fold higher, 129000 M⁻¹ s⁻¹
- B10 — within 1.5-fold, 40700 M⁻¹ s⁻¹
- B11 — 2.8-fold higher, 82400 M⁻¹ s⁻¹
- B12 — 2.6-fold higher, 79000 M⁻¹ s⁻¹

Target: T2, human native VWF
Test: ELISA, native VWF coated at 20 ng/well, semi-log dilution of the mAb from 10 µg/ml, anti-human IgG-HRP/TMB
Remark: another data set of the same source
Method: as §4

B4 was tested, and the “EC50 (read off the curve)” value was ~8 ng/mL.

Target: T1, human full-length VWF
Test: SPR, Biacore T200, antibody captured on Protein A, full-length VWF as analyte, single-cycle kinetics
Remark: another data set of the same source

Point of comparison: B17, Kd 0.15 pM. Against it:
- B4 — 400-fold higher, 60.3 pM
- B14 — 250-fold higher, 38 pM
- B15 — 1.6-fold lower, 0.0946 pM
- B16 — 12-fold higher, 1.77 pM
- B18 — 51-fold higher, 7.66 pM
- B19 — 11-fold higher, 1.6 pM

Point of comparison: B18, koff 1.06e-06 s⁻¹. Against it:
- B14 — 11-fold higher, 1.13e-05 s⁻¹
- B15 — 160-fold lower, 6.72e-09 s⁻¹
- B16 — 3.5-fold lower, 2.99e-07 s⁻¹
- B17 — 94-fold lower, 1.13e-08 s⁻¹
- B19 — 8.5-fold lower, 1.25e-07 s⁻¹

Point of comparison: B17, kon 75200 M⁻¹ s⁻¹. Against it:
- B14 — 4-fold higher, 298000 M⁻¹ s⁻¹
- B15 — within 1.5-fold, 71000 M⁻¹ s⁻¹
- B16 — 2.2-fold higher, 169000 M⁻¹ s⁻¹
- B18 — 1.8-fold higher, 138000 M⁻¹ s⁻¹
- B19 — within 1.5-fold, 77900 M⁻¹ s⁻¹

These binders were tested against T2, human native VWF (assay: SPR, Biacore 8K, antibody captured on Protein A, native VWF as analyte (4.4-50 nM), single-cycle kinetics, 1:1 fit; replicate 3).
Method: as §2, §3

Point of comparison: B3, Kd 64.1 pM. Against it:
- B4 — 2.6-fold lower, 25 pM
- B5 — 1.9-fold higher, 123 pM
